Measurements as given in patent publication US20180086837A1.

How the values were obtained:
[1] = molecular target: cynomolgus CXCR4 (cynomolgus) (UniProt Q28474); experiment: flow cytometry, transfected HEK293T cells; normalisation reference (column 100 nM)
hCXCR4-V196E (human) [2] = molecular target: hCXCR4-V196E (human) (UniProt P61073); experiment: as above
[3] = molecular target: cynomolgus CXCR4 (cynomolgus) (UniProt Q28474); experiment: flow cytometry, transfected HEK293T cells; normalisation reference (column 10 nM)
hCXCR4-V196E (human) [4] = molecular target: hCXCR4-V196E (human) (UniProt P61073); experiment: as above

hCXCR4-V196E (human), sequence (P61073 whole entry V196E): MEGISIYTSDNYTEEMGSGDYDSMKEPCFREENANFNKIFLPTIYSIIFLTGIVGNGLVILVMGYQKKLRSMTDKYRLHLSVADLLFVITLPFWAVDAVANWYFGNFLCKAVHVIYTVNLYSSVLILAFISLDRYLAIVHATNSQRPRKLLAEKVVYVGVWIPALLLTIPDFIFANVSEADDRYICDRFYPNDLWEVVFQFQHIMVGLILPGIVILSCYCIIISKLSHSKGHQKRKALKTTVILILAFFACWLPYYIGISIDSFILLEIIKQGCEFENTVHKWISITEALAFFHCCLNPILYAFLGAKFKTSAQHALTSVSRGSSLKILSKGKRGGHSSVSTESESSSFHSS
cynomolgus CXCR4 (cynomolgus), sequence (Q28474 whole entry): as the sequence (P61073 whole entry V196E) above, with M24I, N35H, K38R, R146K, N176S, E196V counted along it

% binding relative to hCXCR4 [1]: 100%
% binding relative to hCXCR4 (hCXCR4-V196E (human) [2]): 100%
% binding relative to hCXCR4 [3]: 100%
% binding relative to hCXCR4 (hCXCR4-V196E (human) [4]): 100%
Substance: anti-CXCR4 monoclonal antibody 12G5 (R&D Systems, MAB170)
